For this test, the target named is E. coli small ribosomal 30S subunit (E. coli (MRE600)) (UniProt P0AG67).

The text below walks through data of article PMC5655137.

The Kd is the free concentration of one partner at which half of the binding sites on the other are occupied at equilibrium, for simple one-to-one binding. Higher therefore signals lower affinity.

Sequence of E. coli RNA polymerase core complex (P0A7Z4 whole entry): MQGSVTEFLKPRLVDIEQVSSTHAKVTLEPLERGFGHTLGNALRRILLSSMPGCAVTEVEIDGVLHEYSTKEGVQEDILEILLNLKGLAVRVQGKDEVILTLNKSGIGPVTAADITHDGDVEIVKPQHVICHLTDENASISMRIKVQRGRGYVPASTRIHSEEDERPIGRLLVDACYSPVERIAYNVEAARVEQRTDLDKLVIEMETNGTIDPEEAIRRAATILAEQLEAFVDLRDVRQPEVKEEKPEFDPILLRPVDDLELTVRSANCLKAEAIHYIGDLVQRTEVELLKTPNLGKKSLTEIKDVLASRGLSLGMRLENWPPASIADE
Sequence of E. coli RNA polymerase core complex (P0A8V2 2-1341): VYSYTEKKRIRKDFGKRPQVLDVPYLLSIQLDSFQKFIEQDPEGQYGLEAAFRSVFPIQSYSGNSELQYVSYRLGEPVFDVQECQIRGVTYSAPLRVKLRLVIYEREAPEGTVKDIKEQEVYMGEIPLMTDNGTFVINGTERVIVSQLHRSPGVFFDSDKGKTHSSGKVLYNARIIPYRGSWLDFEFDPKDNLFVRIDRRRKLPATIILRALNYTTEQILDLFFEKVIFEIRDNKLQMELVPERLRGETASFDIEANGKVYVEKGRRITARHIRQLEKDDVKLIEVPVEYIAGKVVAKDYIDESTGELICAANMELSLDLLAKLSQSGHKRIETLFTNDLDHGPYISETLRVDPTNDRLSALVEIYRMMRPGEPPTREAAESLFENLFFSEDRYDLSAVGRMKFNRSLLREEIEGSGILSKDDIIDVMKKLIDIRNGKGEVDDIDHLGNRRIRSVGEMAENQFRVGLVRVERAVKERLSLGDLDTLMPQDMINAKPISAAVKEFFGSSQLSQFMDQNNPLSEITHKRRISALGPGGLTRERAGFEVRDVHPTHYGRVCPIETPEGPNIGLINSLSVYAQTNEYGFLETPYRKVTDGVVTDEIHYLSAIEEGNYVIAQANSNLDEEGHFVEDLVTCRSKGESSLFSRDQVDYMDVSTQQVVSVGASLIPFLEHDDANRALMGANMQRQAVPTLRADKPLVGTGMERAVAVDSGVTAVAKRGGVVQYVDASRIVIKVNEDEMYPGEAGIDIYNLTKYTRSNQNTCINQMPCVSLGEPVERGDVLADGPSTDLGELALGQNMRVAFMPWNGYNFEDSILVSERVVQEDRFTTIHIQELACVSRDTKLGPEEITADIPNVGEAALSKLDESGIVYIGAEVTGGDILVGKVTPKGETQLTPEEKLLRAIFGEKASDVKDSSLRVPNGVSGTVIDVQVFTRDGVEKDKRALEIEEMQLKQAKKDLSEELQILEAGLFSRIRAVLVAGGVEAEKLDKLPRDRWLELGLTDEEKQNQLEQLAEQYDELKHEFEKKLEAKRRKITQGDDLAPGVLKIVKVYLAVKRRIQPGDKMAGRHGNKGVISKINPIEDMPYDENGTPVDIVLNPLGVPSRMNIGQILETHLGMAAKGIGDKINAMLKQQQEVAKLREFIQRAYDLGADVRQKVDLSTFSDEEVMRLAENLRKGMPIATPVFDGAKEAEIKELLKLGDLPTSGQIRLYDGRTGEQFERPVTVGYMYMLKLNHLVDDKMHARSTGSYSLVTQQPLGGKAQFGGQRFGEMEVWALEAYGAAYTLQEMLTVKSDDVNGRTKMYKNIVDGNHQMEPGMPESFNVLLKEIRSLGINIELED
Sequence of E. coli RNA polymerase core complex (P0A8T7 8-1376): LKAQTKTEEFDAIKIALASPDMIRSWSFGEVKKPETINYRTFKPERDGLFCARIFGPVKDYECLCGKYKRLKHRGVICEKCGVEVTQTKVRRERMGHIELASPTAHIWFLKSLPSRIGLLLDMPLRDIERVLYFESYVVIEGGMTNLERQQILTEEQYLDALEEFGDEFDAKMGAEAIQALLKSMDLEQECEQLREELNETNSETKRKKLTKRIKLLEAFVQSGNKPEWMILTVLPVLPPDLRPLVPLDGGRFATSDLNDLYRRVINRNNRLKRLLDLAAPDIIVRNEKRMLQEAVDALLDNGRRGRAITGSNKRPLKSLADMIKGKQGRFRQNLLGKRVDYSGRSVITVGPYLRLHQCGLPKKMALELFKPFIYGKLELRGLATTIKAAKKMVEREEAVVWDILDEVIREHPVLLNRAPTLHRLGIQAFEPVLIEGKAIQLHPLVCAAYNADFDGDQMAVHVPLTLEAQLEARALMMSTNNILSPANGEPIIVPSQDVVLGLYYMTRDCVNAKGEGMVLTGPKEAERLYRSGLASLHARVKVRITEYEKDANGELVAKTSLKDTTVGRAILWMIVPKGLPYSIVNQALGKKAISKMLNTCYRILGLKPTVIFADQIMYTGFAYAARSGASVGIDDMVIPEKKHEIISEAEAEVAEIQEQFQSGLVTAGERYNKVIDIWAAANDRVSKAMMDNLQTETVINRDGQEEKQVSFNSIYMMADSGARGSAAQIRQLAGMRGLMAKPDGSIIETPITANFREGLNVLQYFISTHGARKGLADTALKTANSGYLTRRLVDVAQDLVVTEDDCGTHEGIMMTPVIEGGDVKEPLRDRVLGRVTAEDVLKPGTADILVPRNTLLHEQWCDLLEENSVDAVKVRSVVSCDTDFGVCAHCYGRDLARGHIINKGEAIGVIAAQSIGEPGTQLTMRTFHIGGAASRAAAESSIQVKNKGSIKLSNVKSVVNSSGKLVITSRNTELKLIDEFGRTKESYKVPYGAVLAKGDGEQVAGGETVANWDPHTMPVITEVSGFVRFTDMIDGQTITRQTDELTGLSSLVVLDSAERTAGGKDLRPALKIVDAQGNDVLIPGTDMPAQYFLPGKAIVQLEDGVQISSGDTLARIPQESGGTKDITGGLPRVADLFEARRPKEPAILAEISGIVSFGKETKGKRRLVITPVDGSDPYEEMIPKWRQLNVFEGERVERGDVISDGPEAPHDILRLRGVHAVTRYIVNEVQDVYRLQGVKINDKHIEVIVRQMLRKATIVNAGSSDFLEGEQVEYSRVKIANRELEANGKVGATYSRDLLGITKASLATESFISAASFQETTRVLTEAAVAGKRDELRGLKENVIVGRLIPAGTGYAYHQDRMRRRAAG
Sequence of E. coli RNA polymerase core complex (P0A800 whole entry): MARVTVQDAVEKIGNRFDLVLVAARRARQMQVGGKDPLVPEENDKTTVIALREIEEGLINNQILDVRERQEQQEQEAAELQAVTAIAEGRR

Substance “E. coli RNA polymerase core complex (from UniProt P0A7Z4 1-329; P0A8V2 2-1341; P0A8T7 8-1376; P0A800 1-91) (complex; C-terminal 6xHis tag on beta' omitted; Zn-bound beta' Zn-finger; core without sigma; K12 sequences assumed)” yielded a Kd of 21 nM.
